Tested on: control human primary myoblasts
Assay: Expression microarray of primary myoblasts transduced with lentivirus carrying DUX4-fl, DUX4-s or GFP
Method: Primary human myoblasts were collected and cultured as previously described (Snider et al., 2010). Primary myoblasts were maintained at or below 70% confluency for proliferation. For differentiation, cells were allowed to reach 95-100% confluency in growth medium. Once confluency was reached, the cells were changed to differentiation medium (F10 media supplemented with 1% horse serum, 10 μg/mL insulin, and 10 μg/mL transferrin, penicillin/streptomycin) and maintained for 4 days. Human RD cells were grown in DMEM in 10% bovine calf serum (Hyclone) and penicillin/streptomycin. The primary myoblasts were transduced with lentivirus carrying DUX-fl, DUX4- or GFP (MOI=15).
Expression microarrays were performed on the transduced cells at 24 hours after transduction as follows. […] Samples were analyzed by Illumina Human Whole Genome microarrays. Probe intensities were corrected, normalized, and summarized by the Lumi package of Bioconductor (Du et al., 2008). Differentially expressed genes were identified by the LIMMA package of Bioconductor (Wettenhall and Smyth, 2004). Gene set enrichment analysis (GSEA) was performed using the Bioconductor GOstats package (Falcon and Gentleman, 2007).

B1: DUX4-s: short splice form of DUX4 (SEQ ID NO:112), keeps the double-homeobox domains, lacks the C-terminal activation domain (protein, listed as Homo sapiens)
chain: MALPTPSDSTLPAEARGRGRRRRLVWTPSQSEALRACFERNPYPGIATRERLAQAIGIPEPRVQIWFQNERSRQLRQHRRESRPWPGRRGPPEGRRKRTAVTGSQTALLLRAFEKDRFPGIAAREELARETGLPESRIQIWFQNRRARHPGQGGRAPAQV
MYBPHL expression fc (cultured human skeletal muscle): −0.5205 | MYF5 expression fc (cultured human skeletal muscle): 0.291 | MYH13 expression fc (cultured human skeletal muscle): −1.541 | NACC2 expression fc (cultured human skeletal muscle): 0.9823 | NFIL3 expression fc (cultured human skeletal muscle): 0.3195 | NFKB1 expression fc (cultured human skeletal muscle): 0.05546 | NFKBIZ expression fc (cultured human skeletal muscle): −0.2644 | NINJ1 expression fc (cultured human skeletal muscle): 0.2107 | NPTX2 expression fc (cultured human skeletal muscle): 0.122 | NRXN2 expression fc (cultured human skeletal muscle): −0.2444 | NT5E expression fc (cultured human skeletal muscle): 0.489 | OCEL1 expression fc (cultured human skeletal muscle): −0.0991 | P2RX6 expression fc (cultured human skeletal muscle): −0.7432 | PARP3 expression fc (cultured human skeletal muscle): 0.1606 | PCK2 expression fc (cultured human skeletal muscle): 0.4194 | PCTK3 expression fc (cultured human skeletal muscle): 0.5932 | PDK4 expression fc (cultured human skeletal muscle): 0.02699 | PDPN expression fc (cultured human skeletal muscle): −0.2902 | PFKFB4 expression fc (cultured human skeletal muscle): 0.4582 | PHF15 expression fc (cultured human skeletal muscle): 0.2557 | PHLDA3 expression fc (cultured human skeletal muscle): 0.1958 | PLA2G4C expression fc (cultured human skeletal muscle): 0.07403 | PLEKHA4 expression fc (cultured human skeletal muscle): 1.33 | PLIN2 expression fc (cultured human skeletal muscle): 0.6107 | PLXNB1 expression fc (cultured human skeletal muscle): −0.09843 | PLXNB2 expression fc (cultured human skeletal muscle): 0.2031 | PPAP2B expression fc (cultured human skeletal muscle): 0.05885 | PPP3CC expression fc (cultured human skeletal muscle): 0.2562 | PRDM1 expression fc (cultured human skeletal muscle): −0.09376 | PRKCD expression fc (cultured human skeletal muscle): 0.349 | PSMB10 expression fc (cultured human skeletal muscle): 0.7464 | PSME2 expression fc (cultured human skeletal muscle): 0.4304 | PTGES expression fc (cultured human skeletal muscle): 0.3116 | PTPRU expression fc (cultured human skeletal muscle): 0.2612 | RALGDS expression fc (cultured human skeletal muscle): 0.0686 | RBCK1 expression fc (cultured human skeletal muscle): 0.326 | RBM43 expression fc (cultured human skeletal muscle): 0.3215 | RCAN1 expression fc (cultured human skeletal muscle): 0.9917 | RELB expression fc (cultured human skeletal muscle): 0.2914 | RGS20 expression fc (cultured human skeletal muscle): 0.08652 | RHBDF2 expression fc (cultured human skeletal muscle): 0.3815 | RRAS expression fc (cultured human skeletal muscle): −0.1908 | RRBP1 expression fc (cultured human skeletal muscle): 0.09904 | RTKN expression fc (cultured human skeletal muscle): −0.2678 | RTTN expression fc (cultured human skeletal muscle): 0.009387 | RUSC1 expression fc (cultured human skeletal muscle): 0.03464 | SERPING1 expression fc (cultured human skeletal muscle): 1.214 | SESN1 expression fc (cultured human skeletal muscle): −0.1133 | SHISA5 expression fc (cultured human skeletal muscle): −0.2735 | SIX5 expression fc (cultured human skeletal muscle): −0.3614 | SLC16A3 expression fc (cultured human skeletal muscle): 0.4873 | SLC22A18 expression fc (cultured human skeletal muscle): −0.05235 | SLC25A28 expression fc (cultured human skeletal muscle): 0.7251 | SLC39A14 expression fc (cultured human skeletal muscle): 0.4801 | SPTLC3 expression fc (cultured human skeletal muscle): 0.2428 | SQSTM1 expression fc (cultured human skeletal muscle): 0.1771 | SRGN expression fc (cultured human skeletal muscle): 0.2031 | STC1 expression fc (cultured human skeletal muscle): 0.8132 | STEAP3 expression fc (cultured human skeletal muscle): −0.291 | SUSD2 expression fc (cultured human skeletal muscle): −2.022 | TAPBP expression fc (cultured human skeletal muscle): 0.474 | TCEA3 expression fc (cultured human skeletal muscle): −0.1206 | TCP11L1 expression fc (cultured human skeletal muscle): 0.7816 | TMEM45A expression fc (cultured human skeletal muscle): 0.4128 | TMEM173 expression fc (cultured human skeletal muscle): 0.3673 | TNFAIP2 expression fc (cultured human skeletal muscle): 0.05713 | TNFRSF1A expression fc (cultured human skeletal muscle): 0.2727 | TNFRSF6B expression fc (cultured human skeletal muscle): 0.00925 | TNFSF13B expression fc (cultured human skeletal muscle): 2.19 | TNS3 expression fc (cultured human skeletal muscle): −0.1648 | TRAF3IP2 expression fc (cultured human skeletal muscle): 0.7299 | TRIP6 expression fc (cultured human skeletal muscle): 0.003438 | TRNP1 expression fc (cultured human skeletal muscle): 0.007844 | TSC22D3 expression fc (cultured human skeletal muscle): 0.2002 | VASN expression fc (cultured human skeletal muscle): 0.2877 | VEZF1 expression fc (cultured human skeletal muscle): −0.6876 | XBP1 expression fc (cultured human skeletal muscle): 0.3357 | ZBTB4 expression fc (cultured human skeletal muscle): 0.002479 | ZC3H12A expression fc (cultured human skeletal muscle): 0.5426 | ZFHX3 expression fc (cultured human skeletal muscle): 0.5029 | ZFP36L2 expression fc (cultured human skeletal muscle): 0.7338 | ZFP90 expression fc (cultured human skeletal muscle): −0.1973 | ZNF337 expression fc (cultured human skeletal muscle): −0.04356 | ZNF395 expression fc (cultured human skeletal muscle): 0.2584 | Log2 Fc AMACR (vs lenti-GFP, 24 h): 0.1 log2 | Log2 Fc ARIH1 (vs lenti-GFP, 24 h): 0.8 log2 | Log2 Fc ARS2 (vs lenti-GFP, 24 h): −0.2 log2 | Log2 Fc CBARA1 (vs lenti-GFP, 24 h): −0.2 log2 | Log2 Fc CD24 (vs lenti-GFP, 24 h): −0.4 log2 | Log2 Fc CSAG3 (vs lenti-GFP, 24 h): 0.1 log2 | Log2 Fc CSE1L (vs lenti-GFP, 24 h): 0.1 log2 | Log2 Fc CWC15 (vs lenti-GFP, 24 h): 0.1 log2 | Log2 Fc CXADR (vs lenti-GFP, 24 h): −0.1 log2 | Log2 Fc CXCR4 (vs lenti-GFP, 24 h): −0.1 log2 | Log2 Fc DBR1 (vs lenti-GFP, 24 h): 0.2 log2 | Log2 Fc DEFB103B (vs lenti-GFP, 24 h): 0.1 log2 | Log2 Fc FBXO33 (vs lenti-GFP, 24 h): 0.2 log2 | Log2 Fc FGFR3 (vs lenti-GFP, 24 h): 0.0 log2 | Log2 Fc FLJ45337 (vs lenti-GFP, 24 h): −0.2 log2 | Log2 Fc GTF2F1 (vs lenti-GFP, 24 h): 0.3 log2 | Log2 Fc HNRNPCL1 (vs lenti-GFP, 24 h): −0.1 log2 | Log2 Fc HOXB2 (vs lenti-GFP, 24 h): 0.0 log2 | Log2 Fc HSPA2 (vs lenti-GFP, 24 h): −0.3 log2 | Log2 Fc ID2 (vs lenti-GFP, 24 h): 0.3 log2 | Log2 Fc IFRD1 (vs lenti-GFP, 24 h): −0.2 log2 | Log2 Fc JUP (vs lenti-GFP, 24 h): −0.1 log2 | Log2 Fc KHDC1L (vs lenti-GFP, 24 h): −0.1 log2 | Log2 Fc MBD3L2 (vs lenti-GFP, 24 h): 0.0 log2 | Log2 Fc MED26 (vs lenti-GFP, 24 h): 0.1 log2 | Log2 Fc MGC10997 (vs lenti-GFP, 24 h): −0.3 log2 | Log2 Fc PABPN1 (vs lenti-GFP, 24 h): −0.3 log2 | Log2 Fc PELI1 (vs lenti-GFP, 24 h): 0.1 log2 | Log2 Fc PNMA6B (vs lenti-GFP, 24 h): −0.2 log2 | Log2 Fc PRAMEF1 (vs lenti-GFP, 24 h): 0.1 log2 | Log2 Fc PVRL3 (vs lenti-GFP, 24 h): 0.4 log2 | Log2 Fc RMRP (vs lenti-GFP, 24 h): 0.1 log2 | Log2 Fc RNGTT (vs lenti-GFP, 24 h): −0.6 log2 | Log2 Fc RPPH1 (vs lenti-GFP, 24 h): 0.2 log2 | Log2 Fc RRN3 (vs lenti-GFP, 24 h): 0.1 log2 | Log2 Fc SFRS2B (vs lenti-GFP, 24 h): −0.3 log2 | Log2 Fc SFRS17A (vs lenti-GFP, 24 h): 0.2 log2 | Log2 Fc SIAH1 (vs lenti-GFP, 24 h): −0.1 log2 | Log2 Fc SLC2A14 (vs lenti-GFP, 24 h): 0.2 log2 | Log2 Fc SLC34A2 (vs lenti-GFP, 24 h): 0.0 log2 | Log2 Fc SNIP1 (vs lenti-GFP, 24 h): −0.2 log2 | Log2 Fc SON (vs lenti-GFP, 24 h): −0.3 log2 | Log2 Fc SPRYD5 (vs lenti-GFP, 24 h): −0.1 log2 | Log2 Fc SPTY2D1 (vs lenti-GFP, 24 h): −0.3 log2 | Log2 Fc TFIP11 (vs lenti-GFP, 24 h): 0.1 log2 | Log2 Fc THOC4 (vs lenti-GFP, 24 h): −0.2 log2 | Log2 Fc TPRX1 (vs lenti-GFP, 24 h): −0.1 log2 | Log2 Fc TRIM23 (vs lenti-GFP, 24 h): 0.6 log2 | Log2 Fc TRIM43 (vs lenti-GFP, 24 h): 0.0 log2 | Log2 Fc USP29 (vs lenti-GFP, 24 h): −0.1 log2 | Log2 Fc ZNF217 (vs lenti-GFP, 24 h): −0.3 log2 | Log2 Fc ZNF705A (vs lenti-GFP, 24 h): −0.1 log2 | Log2 Fc ZNHIT6 (vs lenti-GFP, 24 h): 0.3 log2 | Log2 Fc ZSCAN2 (vs lenti-GFP, 24 h): −0.2 log2 | Log2 Fc ZSCAN4 (vs lenti-GFP, 24 h): 0.0 log2

— US20140242093A1, “METHODS AND COMPOSITIONS FOR MODULATING THE INNATE IMMUNE RESPONSE AND/OR MYOGENESIS IN A MAMMALIAN SUBJECT” (FRED HUTCHINSON CANCER RESEARCH CENTER, priority 2011, published 2014)
